Article PMC11949052

B1: C1-esterase inhibitor (C1-INH): N253A (protein)
parent chain: MASRLTLLTLLLLLLAGDRASSNPNATSSSSQDPESLQDRGEGKVATTVISKMLFVEPILEVSSLPTTNSTTNSATKITANTTDEPTTQPTTEPTTQPTIQPTQPTTQLPTDSPTQPTTGSFCPGPVTLCSDLESHSTEAVLGDALVDFSLKLYHAFSAMKKVETNMAFSPFSIASLLTQVLLGAGENTKTNLESILSYPKDFTCVHQALKGFTTKGVTSVSQIFHSPDLAIRDTFVNASRTLYSSSPRVLSNNSDANLELINTWVAKNTNNKISRLLDSLPSDTRLVLLNAIYLSAKWKTTFDPKKTRMEPFHFKNSVIKVPMMNSKKYPVAHFIDQTLKAKVGQLQLSHNLSLVILVPQNLKHRLEDMEQALSPSVFKAIMEKLEMSKFQPTLLTLPRIKVTTSQDMLSIMEKLEFFDFSYDLNLCGLTEDPDLQVSAMQHQTVLELTETGVEAAAASAISVARTLLVFEVQQPFLFVLWDQQHKFPVFMGRVYDPRA
B2: C1-esterase inhibitor (C1-INH): N352A (protein)
parent chain: B1 parent chain
B3: C1-esterase inhibitor (C1-INH): N238A (protein)
parent chain: B1 parent chain
B4: C1-esterase inhibitor (C1-INH): S354G (protein)
parent chain: B1 parent chain
B5: C1-esterase inhibitor (C1-INH): S255G (protein)
parent chain: B1 parent chain
B6: C1-esterase inhibitor (C1-INH): N352S (protein)
parent chain: B1 parent chain

Test: ELISA and Western blot of HEK293T supernatants
Conditions: glycan lost; control: wild type

Protein | expression_or_secretion, percent_of_wt
B1 | no change
B2 | no change
B3 | no change
B4 | no change
B5 | no change
B6 | no change
